Broadly, the stoichiometry N is the number of molecules, sites or subunits per partner or assembly.

The text below walks through data of publication doi:10.1101/2024.10.02.616342.

In the assay the target is mNG-BCR-ABL (biotinylated Avitag-linker-mNeon Green-linker-p210 BCR-ABL, full length) (human) (UniProt P00519). The assay can be described thus: single-molecule TIRF pull-down.

“mNG-BCR-ABL (biotinylated Avitag-linker-mNeon Green-linker-p210 BCR-ABL, full length) (from UniProt P00519-1 28-1130)” displayed a percent dimeric of 55%, a percent monomeric of 40%, a percent tetramer of 5% and a stoichiometry N of 2.
